# Measured values taken from patent publication US20230330251A1, “METHODS FOR TREATING CANCERS WITH ANTIBODY DRUG CONJUGATES (ADC) THAT BIND TO 191P4D12 PROTEINS” (AGENSYS, INC., priority 2020, published 2023).
# Experiments:
# Type in all cases: in vivo, human
# [1] = test system: subjects with previously treated locally advanced or metastatic urothelial cancer; test: EV-301: progression free survival (PFS1) per RECIST V1.1, investigator assessment
# Excerpt: For each subject, PFS1 is defined as the time from the date of randomization until the date of radiological disease progression (per RECIST V1.1), or until death due to any cause. If a subject has neither progressed nor died, the subject was censored at the date of last radiological assessment. Subjects who receive any further anticancer therapy for the disease before radiological progression were censored at the date of the last radiological assessment before the anticancer therapy started.
# The efficacy endpoint of PFS1 was analyzed using the log-rank test stratified by ECOG PS (0 vs 1), regions of the world (Western EU, US or the rest of world) and liver metastasis (yes or no). Randomized treatment and the strata used for randomization was used for the analysis. In addition, stratified Cox proportional hazard model was used to estimate the hazard ratio and the corresponding 95% confidence interval. The median PFS1 was estimated using the Kaplan-Meier method and reported along with the corresponding 95% confidence interval by treatment arm.
# The primary analysis was performed using the FAS. Additional sensitivity analyses for PFS1 was also be performed. Details are specified in the SAP.
# [2] = test system: subjects with previously treated locally advanced or metastatic urothelial cancer; test: EV-301: overall response rate, complete/partial response, disease control rate per RECIST V1.1 (response evaluable set)
# Excerpt: Subjects will be evaluated for response according to the RECIST V1.1. Imaging for both arms will be performed at baseline and every 56 days (±7 days) from the first dose of study treatment throughout the study until PFS1 is documented by radiological disease progression or the subject is lost to follow-up, death, withdraws study consent or starts a subsequent anti-cancer therapy.
# CR is defined as disappearance of all target and nontarget lesions. Any pathological lymph nodes (whether target or nontarget) must have reduction in short axis to <10 mm from baseline measurement.
# PR is defined as at least a 30% decrease in the sum of diameters (longest for nonnodal lesions, short axis for nodal lesions) of target lesions taking as reference to the baseline sum of diameters.
# SD is defined as neither sufficient decrease to qualify for PR nor sufficient increase to qualify for progressive disease taking as reference the smallest sum of diameters while on study drug.
# PD is defined as at least a 20% increase in the sum of diameters (longest for nonnodal lesions, short axis for nodal lesions) of the target lesions taking as reference the smallest sum on study (this includes the baseline sum if that is the smallest on study). […] The appearance of 1 or more new lesions is also considered progression.
# The response evaluable set (RES) is defined as all subjects in FAS and with measurable disease at baseline and had at least 6 months follow up since randomization. RES will be used for primary efficacy analysis of response related endpoints, e.g., ORR and DCR.
# The overall response rate (ORR) is defined as the proportion of subjects with complete or partial objective response based on the RECIST V1.1. The comparison of ORR between Arm A and Arm B was performed using a stratified CMH test. Same stratification factors used in time to event analyses will be used for the stratified CMH test. […] In addition, ORR for each arm was estimated and corresponding 95% confidence interval will be constructed. The primary analysis was performed using the RES.
# The DCR is defined as the proportion of subjects with a complete or partial objective response or a stable disease based on RECIST V1.1. The comparison of DCR between Arm A and Arm B was performed using a stratified CMH test. Same stratification factors used in time to event analyses were used for the stratified CMH test. […] In addition, DCR for each arm was estimated and corresponding 95% confidence interval will be constructed. The primary analysis was performed using the RES.
# [3] = test system: subjects with previously treated locally advanced or metastatic urothelial cancer; test: EV-301: duration of response (DOR) per RECIST V1.1
# Excerpt: Duration of Response (DOR) is defined as the time from the date of the first response CR/PR per RECIST V1.1 (whichever is first recorded) that is subsequently confirmed as assessed by investigator to the date of radiological progression or date of death for subjects who achieved CR or PR. If a subject has not progressed or died, the subject was censored at the date of last radiological assessment or at the date of first CR/PR if no other post-baseline radiological assessment is available after the first CR/PR. The median DOR was estimated using the Kaplan-Meier method and is reported along with the corresponding 95% confidence interval by treatment arm.
# [4] = test system: patients with previously treated locally advanced or metastatic urothelial carcinoma (la/mUC) with poor prognostic factors; test: EV-301 hard-to-treat subgroups: safety and tolerability
# Description: Subgroup analyses were prespecified for the primary endpoint of OS and secondary endpoints of investigator-assessed progression-free survival (PFS) and overall response rate (ORR) per RECIST v1.1. Kaplan-Meier analyses compared OS and PFS between treatments for selected hard-to-treat subgroups as follows: age ≥65 years, presence of liver metastasis, primary upper tract disease, and checkpoint inhibitor (CPI) nonresponse. ORR and safety were also evaluated within subgroups. The Cox proportional hazards model was used to estimate hazard ratios. The Cochran-Mantel-Haenszel test was used to compare response and disease control rates between groups.
# [5] = All, Response-Evaluable Population
# [6] = patients with confirmed complete or partial response
# [7] = Aged ≥65 Years, N = 190 EV, 188 SC
# [8] = Nonresponsive to Prior PD-1/L1 Inhibitor, N = 202 EV, 202 SC
# [9] = Presence of Liver Metastasis, N = 90 EV, 92 SC
# [10] = Primary Upper Tract Disease, N = 96 EV, 102 SC
substance,measurement,setting,value
enfortumab vedotin,Median PFS,[1]; All,5.55 mo
same,"PFS, EV vs SC HR",[1]; All,0.615
same,"Progression-free survival (PFS) Events, %",[1]; All,(66.8) %
same,"Progression-free survival (PFS) Events, n/N",[1]; All,201/301
same,Median PFS,"[1]; FAS, investigator assessment",5.55 Months
same,"PFS Events, %","[1]; FAS, investigator assessment",(66.8%)
same,reduction in risk of disease progression or death,[1]; PADCEV vs chemotherapy,39%
same,"ORR, EV vs SC Absolute Difference",[2]; [5],22.7%
same,"Overall response rate (ORR), %",[2]; [5],40.6%
same,"Overall response rate (ORR), n/N",[2]; [5],117/288
same,"Best overall response: Complete response, %","[2]; RECIST v1.1, RES",(4.9) %
same,"Best overall response: Not evaluable, %","[2]; RECIST v1.1, RES",(12.8) %
same,"Best overall response: Partial response, %","[2]; RECIST v1.1, RES",(35.8) %
same,"Best overall response: Progressive disease, %","[2]; RECIST v1.1, RES",(15.3) %
same,"Best overall response: Stable disease, %","[2]; RECIST v1.1, RES",(31.3) %
same,"Time to response, Median",[2]; RES,1.87 months
same,"Overall Response Rate (ORR), Confirmed, %","[2]; RES, investigator assessment, N = 288 EV, 296 chemotherapy",(40.6%)
same,"Disease control rate, Patients, %","[2]; RES, N = 288 EV, 296 chemotherapy",(71.9%)
same,"complete response, number of patients",[2]; of 288 (enfortumab vedotin) / of 296 (chemotherapy),14
same,Disease control,[2]; response-evaluable population,71.9%
same,"complete response, % of the patients",[2]; response-evaluable population,4.9%
same,median duration of response,[3]; patients who had a complete or partial response,7.39 months
same,"Duration of Response (DOR), Events, %",[3]; [6],(53.8%)
same,"Duration of Response, At 6 months",[3]; [6],53.8%
same,"Duration of Response, At 12 months",[3]; [6],27.7%
same,Median of DOR,[3]; [6],7.39 Months
same,"Grade ≥3 TRAE: Anemia, %",[4]; [7],2.6%
same,"Grade ≥3 TRAE: Decreased neutrophil count, %",[4]; [7],7.4%
same,"Grade ≥3 TRAE: Decreased white blood cell count, %",[4]; [7],2.1%
same,"Grade ≥3 TRAE: Fatigue, %",[4]; [7],7.9%
same,"Grade ≥3 TRAE: Febrile neutropenia, %",[4]; [7],1.1%
same,"Grade ≥3 TRAE: Maculopapular rash, %",[4]; [7],7.4%
same,"Grade ≥3 TRAE: Neutropenia, %",[4]; [7],3.7%
same,"Grade ≥3 TRAE: Anemia, %",[4]; [8],3.0%
same,"Grade ≥3 TRAE: Decreased neutrophil count, %",[4]; [8],5.0%
same,"Grade ≥3 TRAE: Decreased white blood cell count, %",[4]; [8],1.0%
same,"Grade ≥3 TRAE: Fatigue, %",[4]; [8],5.0%
same,"Grade ≥3 TRAE: Febrile neutropenia, %",[4]; [8],1.0%
same,"Grade ≥3 TRAE: Maculopapular rash, %",[4]; [8],9.4%
same,"Grade ≥3 TRAE: Neutropenia, %",[4]; [8],4.5%
same,"Grade ≥3 TRAE: Anemia, %",[4]; [9],3.3%
same,"Grade ≥3 TRAE: Decreased neutrophil count, %",[4]; [9],5.6%
same,"Grade ≥3 TRAE: Fatigue, %",[4]; [9],5.6%
same,"Grade ≥3 TRAE: Febrile neutropenia, %",[4]; [9],2.2%
same,"Grade ≥3 TRAE: Maculopapular rash, %",[4]; [9],8.9%
same,"Grade ≥3 TRAE: Neutropenia, %",[4]; [9],5.6%
same,"Grade ≥3 TRAE: Anemia, %",[4]; [10],6.3%
same,"Grade ≥3 TRAE: Decreased neutrophil count, %",[4]; [10],9.4%
same,"Grade ≥3 TRAE: Decreased white blood cell count, %",[4]; [10],1.0%
same,"Grade ≥3 TRAE: Fatigue, %",[4]; [10],9.4%
same,"Grade ≥3 TRAE: Febrile neutropenia, %",[4]; [10],2.1%
same,"Grade ≥3 TRAE: Maculopapular rash, %",[4]; [10],10.4%
same,"Grade ≥3 TRAE: Neutropenia, %",[4]; [10],6.3%
same,"grade ≥3 treatment-related AEs adjusted for treatment exposure, EV versus SC",[4]; across all four hard-to-treat subgroups,less frequently
same,overall rate of AE's,[4]; patients non-responsive to prior treatment with PD-1/L1 inhibitors,97.5%
same,overall rate of AE's,[4]; patients with liver metastasis,97.8%
same,overall rate of AE's,[4]; patients with primary upper tract disease,99.0%
same,overall rate of AE's,[4]; patients ≥65 years of age,97.4%
